What is called IC50 is the point on the concentration scale where inhibition reaches its midpoint.

Numbered stars: 1 amine (or outer) side, 2 acyl side, 3 side chain; on linkers, the order of the positions; unused ones are H or OH. Bridge positions count the residues as written; N and C are the ends. Side chains are listed from the residue outwards. Ends that are not written are not given here. * marks the point of attachment. C20 diacid = O=C(O)CCCCCCCCCCCCCCCCCCC(=O)*; γGlu = O=C(O)[C@H](CCC(=O)[*:2])N[*:1]

In test [1] the target is T1, human calcitonin receptor (human, UniProt P30988 25-474).
T1 construct: whole, on cells; Assay used cell membranes, not intact cells; also called hCTR; hCT
T1 sequence (looked up): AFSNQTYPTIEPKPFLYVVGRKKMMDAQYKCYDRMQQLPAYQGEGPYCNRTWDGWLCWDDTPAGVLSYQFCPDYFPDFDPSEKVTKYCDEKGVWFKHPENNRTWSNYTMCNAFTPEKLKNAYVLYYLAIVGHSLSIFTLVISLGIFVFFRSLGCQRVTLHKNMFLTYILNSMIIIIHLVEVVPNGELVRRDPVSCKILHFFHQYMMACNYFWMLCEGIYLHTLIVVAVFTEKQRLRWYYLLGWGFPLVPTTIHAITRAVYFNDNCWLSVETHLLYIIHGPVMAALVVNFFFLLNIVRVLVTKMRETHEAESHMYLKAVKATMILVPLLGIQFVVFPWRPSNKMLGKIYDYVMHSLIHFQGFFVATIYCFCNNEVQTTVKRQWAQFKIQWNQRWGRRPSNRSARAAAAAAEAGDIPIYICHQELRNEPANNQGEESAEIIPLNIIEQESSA
Briefly: SPA competition with 125I-calcitonin on membranes of BHK cells with human calcitonin receptor (Assay VII). The method in brief: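 BHK hCTR membranes 35 ng/μL + SPA beads 0.05 mg/well; buffer 50 mM Hepes pH 7.4, 1 mM CaCl2, 5 mM MgCl₂, 0.1% OA, 0.02% Tween20. 120 min, 25° C., shaking. Scintillation count; IC50 by one-site binding competition.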

The target in test [2] is T1, human calcitonin receptor. Briefly: ratio IC50 hCTR / IC50 hAmylin-R (reference: human amylin receptor), SPA competition assays. In short, it runs like this: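 Membranes (35 ng/μL final) + SPA beads, 50 mM Hepes pH 7.4 buffer with 1 mM CaCl2, 5 mM MgCl₂, 0.1% OA, 0.02% Tween20; 120 min, 25° C, shaking; centrifuged, counted; IC₅₀ by one-site binding competition.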
The target in test [3] is T2, human amylin receptor (amylin 3(a) receptor: human calcitonin receptor with RAMP-3) (human, UniProt P30988 25-474; O60896 24-148).
T2 construct: whole, on cells; Assay used cell membranes of the Amylin 3(a)/CRE-luc BHK cells, not intact cells; also called hAmylin-R; hAmylinR
T2 sequence (looked up) 1: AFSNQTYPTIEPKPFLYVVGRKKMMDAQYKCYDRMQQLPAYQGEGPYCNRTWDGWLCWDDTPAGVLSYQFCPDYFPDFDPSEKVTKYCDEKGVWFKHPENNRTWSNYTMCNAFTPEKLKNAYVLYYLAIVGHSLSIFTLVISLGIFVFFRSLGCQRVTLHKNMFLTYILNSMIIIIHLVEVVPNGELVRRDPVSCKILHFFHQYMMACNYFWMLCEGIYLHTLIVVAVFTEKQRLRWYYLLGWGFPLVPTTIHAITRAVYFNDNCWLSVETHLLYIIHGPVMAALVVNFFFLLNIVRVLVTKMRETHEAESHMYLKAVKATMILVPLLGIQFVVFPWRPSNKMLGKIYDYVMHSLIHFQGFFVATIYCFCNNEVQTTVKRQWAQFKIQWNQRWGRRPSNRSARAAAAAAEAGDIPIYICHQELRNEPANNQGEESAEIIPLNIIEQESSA
T2 sequence (looked up) 2: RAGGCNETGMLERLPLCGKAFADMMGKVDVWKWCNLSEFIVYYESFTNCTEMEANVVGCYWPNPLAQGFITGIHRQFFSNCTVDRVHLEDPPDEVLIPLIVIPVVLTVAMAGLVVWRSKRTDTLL
Briefly: SPA competition with 125I-rat amylin on membranes of BHK cells with human calcitonin receptor and RAMP-3 (Assay V). In short, it runs like this: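 SPA beads + BHK amylin 3(a)/CRE-luc membranes, 35 ng/μL final; buffer 50 mM Hepes pH 7.4, 1 mM CaCl2, 5 mM MgCl₂, 0.1% OA, 0.02% Tween20. 120 min, 25° C, shaken; scintillation count. IC₅₀ by one-site binding competition fit, taken as receptor affinity.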

B1: N^ε1-[(4S)-4-carboxy-4-(19-carboxynonadecanoylamino)butanoyl]-[Asp14,Arg17,Pro21,Pro27,Pro34,Arg35]-h-amylin (peptide)
peptide: K([γGlu-C20 diacid])CNTATCATQRLADFLRHSSPNFGAIPSSTNVGPRTY-NH2
modifications: disulfide 2-7; N-terminus assumed
SMILES: CC[C@H](C)[C@H](NC(=O)[C@H](C)NC(=O)CNC(=O)[C@H](Cc1ccccc1)NC(=O)[C@H](CC(N)=O)NC(=O)[C@@H]1CCCN1C(=O)[C@H](CO)NC(=O)[C@H](CO)NC(=O)[C@H](Cc1c[nH]cn1)NC(=O)[C@H](CCCNC(=N)N)NC(=O)[C@H](CC(C)C)NC(=O)[C@H](Cc1ccccc1)NC(=O)[C@H](CC(=O)O)NC(=O)[C@H](C)NC(=O)[C@H](CC(C)C)NC(=O)[C@H](CCCNC(=N)N)NC(=O)[C@H](CCC(N)=O)NC(=O)[C@@H](NC(=O)[C@H](C)NC(=O)[C@@H]1CSSC[C@H](NC(=O)[C@@H](N)CCCCNC(=O)CC[C@H](NC(=O)CCCCCCCCCCCCCCCCCCC(=O)O)C(=O)O)C(=O)N[C@@H](CC(N)=O)C(=O)N[C@@H]([C@@H](C)O)C(=O)N[C@@H](C)C(=O)N[C@@H]([C@@H](C)O)C(=O)N1)[C@@H](C)O)C(=O)N1CCC[C@H]1C(=O)N[C@@H](CO)C(=O)N[C@@H](CO)C(=O)N[C@H](C(=O)N[C@@H](CC(N)=O)C(=O)N[C@H](C(=O)NCC(=O)N1CCC[C@H]1C(=O)N[C@@H](CCCNC(=N)N)C(=O)N[C@H](C(=O)N[C@@H](Cc1ccc(O)cc1)C(N)=O)[C@@H](C)O)C(C)C)[C@@H](C)O
As for B1, the figures for the IC50 in test [1] and in test [3] were 42.5 nM and 0.281 nM, respectively. In addition, in test [2], the “Ratio hCT/hAmylin binding” value was determined as 151.

B2: N^ε1-[(4S)-4-carboxy-4-(19-carboxynonadecanoylamino)butanoyl]-[Glu14,Arg17,Pro21,Pro27,Arg34,Glu35]-h-amylin (peptide)
peptide: K([γGlu-C20 diacid])CNTATCATQRLAEFLRHSSPNFGAIPSSTNVGRETY-NH2
modifications: disulfide 2-7; N-terminus assumed
SMILES: CC[C@H](C)[C@H](NC(=O)[C@H](C)NC(=O)CNC(=O)[C@H](Cc1ccccc1)NC(=O)[C@H](CC(N)=O)NC(=O)[C@@H]1CCCN1C(=O)[C@H](CO)NC(=O)[C@H](CO)NC(=O)[C@H](Cc1c[nH]cn1)NC(=O)[C@H](CCCNC(=N)N)NC(=O)[C@H](CC(C)C)NC(=O)[C@H](Cc1ccccc1)NC(=O)[C@H](CCC(=O)O)NC(=O)[C@H](C)NC(=O)[C@H](CC(C)C)NC(=O)[C@H](CCCNC(=N)N)NC(=O)[C@H](CCC(N)=O)NC(=O)[C@@H](NC(=O)[C@H](C)NC(=O)[C@@H]1CSSC[C@H](NC(=O)[C@@H](N)CCCCNC(=O)CC[C@H](NC(=O)CCCCCCCCCCCCCCCCCCC(=O)O)C(=O)O)C(=O)N[C@@H](CC(N)=O)C(=O)N[C@@H]([C@@H](C)O)C(=O)N[C@@H](C)C(=O)N[C@@H]([C@@H](C)O)C(=O)N1)[C@@H](C)O)C(=O)N1CCC[C@H]1C(=O)N[C@@H](CO)C(=O)N[C@@H](CO)C(=O)N[C@H](C(=O)N[C@@H](CC(N)=O)C(=O)N[C@H](C(=O)NCC(=O)N[C@@H](CCCNC(=N)N)C(=O)N[C@@H](CCC(=O)O)C(=O)N[C@H](C(=O)N[C@@H](Cc1ccc(O)cc1)C(N)=O)[C@@H](C)O)C(C)C)[C@@H](C)O
In the case of B2, the results for the IC50 in test [1] and in test [3] were 6.62 nM and 0.232 nM, respectively. The “Ratio hCT/hAmylin binding” value in test [2] turned out to be 28.5.

B3: N^ε1-[(4S)-4-carboxy-4-(19-carboxynonadecanoylamino)butanoyl]-[Glu14,Arg17,Pro21,Pro27,His35]-h-amylin (peptide)
peptide: K([γGlu-C20 diacid])CNTATCATQRLAEFLRHSSPNFGAIPSSTNVGSHTY-NH2
modifications: disulfide 2-7; N-terminus assumed
SMILES: CC[C@H](C)[C@H](NC(=O)[C@H](C)NC(=O)CNC(=O)[C@H](Cc1ccccc1)NC(=O)[C@H](CC(N)=O)NC(=O)[C@@H]1CCCN1C(=O)[C@H](CO)NC(=O)[C@H](CO)NC(=O)[C@H](Cc1c[nH]cn1)NC(=O)[C@H](CCCNC(=N)N)NC(=O)[C@H](CC(C)C)NC(=O)[C@H](Cc1ccccc1)NC(=O)[C@H](CCC(=O)O)NC(=O)[C@H](C)NC(=O)[C@H](CC(C)C)NC(=O)[C@H](CCCNC(=N)N)NC(=O)[C@H](CCC(N)=O)NC(=O)[C@@H](NC(=O)[C@H](C)NC(=O)[C@@H]1CSSC[C@H](NC(=O)[C@@H](N)CCCCNC(=O)CC[C@H](NC(=O)CCCCCCCCCCCCCCCCCCC(=O)O)C(=O)O)C(=O)N[C@@H](CC(N)=O)C(=O)N[C@@H]([C@@H](C)O)C(=O)N[C@@H](C)C(=O)N[C@@H]([C@@H](C)O)C(=O)N1)[C@@H](C)O)C(=O)N1CCC[C@H]1C(=O)N[C@@H](CO)C(=O)N[C@@H](CO)C(=O)N[C@H](C(=O)N[C@@H](CC(N)=O)C(=O)N[C@H](C(=O)NCC(=O)N[C@@H](CO)C(=O)N[C@@H](Cc1c[nH]cn1)C(=O)N[C@H](C(=O)N[C@@H](Cc1ccc(O)cc1)C(N)=O)[C@@H](C)O)C(C)C)[C@@H](C)O
On to B3, for which the IC50 turned out to be 26.1 nM in test [1] and 0.992 nM in test [3]. The “Ratio hCT/hAmylin binding” value in test [2] is 26.4.

B4: N^ε1-[(4S)-4-carboxy-4-(19-carboxynonadecanoylamino)butanoyl]-[Glu14,Arg17,Pro21,Pro27,Pro34,Arg35]-h-amylin (peptide)
peptide: K([γGlu-C20 diacid])CNTATCATQRLAEFLRHSSPNFGAIPSSTNVGPRTY-NH2
modifications: disulfide 2-7; N-terminus assumed
SMILES: CC[C@H](C)[C@H](NC(=O)[C@H](C)NC(=O)CNC(=O)[C@H](Cc1ccccc1)NC(=O)[C@H](CC(N)=O)NC(=O)[C@@H]1CCCN1C(=O)[C@H](CO)NC(=O)[C@H](CO)NC(=O)[C@H](Cc1c[nH]cn1)NC(=O)[C@H](CCCNC(=N)N)NC(=O)[C@H](CC(C)C)NC(=O)[C@H](Cc1ccccc1)NC(=O)[C@H](CCC(=O)O)NC(=O)[C@H](C)NC(=O)[C@H](CC(C)C)NC(=O)[C@H](CCCNC(=N)N)NC(=O)[C@H](CCC(N)=O)NC(=O)[C@@H](NC(=O)[C@H](C)NC(=O)[C@@H]1CSSC[C@H](NC(=O)[C@@H](N)CCCCNC(=O)CC[C@H](NC(=O)CCCCCCCCCCCCCCCCCCC(=O)O)C(=O)O)C(=O)N[C@@H](CC(N)=O)C(=O)N[C@@H]([C@@H](C)O)C(=O)N[C@@H](C)C(=O)N[C@@H]([C@@H](C)O)C(=O)N1)[C@@H](C)O)C(=O)N1CCC[C@H]1C(=O)N[C@@H](CO)C(=O)N[C@@H](CO)C(=O)N[C@H](C(=O)N[C@@H](CC(N)=O)C(=O)N[C@H](C(=O)NCC(=O)N1CCC[C@H]1C(=O)N[C@@H](CCCNC(=N)N)C(=O)N[C@H](C(=O)N[C@@H](Cc1ccc(O)cc1)C(N)=O)[C@@H](C)O)C(C)C)[C@@H](C)O
B4: the values for the IC50 in test [1] and in test [3] were 6.3 nM and 0.163 nM, respectively. In addition, the “Ratio hCT/hAmylin binding” value in test [2] was 38.6.
